# Publication PMC9638944, “ATM-mediated ELL phosphorylation enhances its self-association through increased EAF1 interaction and inhibits global transcription during genotoxic stress” (Nucleic Acids Research, 2022)
# T1: GST-ELL (human, UniProt P55199 1-621)
# T1 construct: ELL (aka ELL1), human; Cloned in pET-GST
# T1 sequence (looked up): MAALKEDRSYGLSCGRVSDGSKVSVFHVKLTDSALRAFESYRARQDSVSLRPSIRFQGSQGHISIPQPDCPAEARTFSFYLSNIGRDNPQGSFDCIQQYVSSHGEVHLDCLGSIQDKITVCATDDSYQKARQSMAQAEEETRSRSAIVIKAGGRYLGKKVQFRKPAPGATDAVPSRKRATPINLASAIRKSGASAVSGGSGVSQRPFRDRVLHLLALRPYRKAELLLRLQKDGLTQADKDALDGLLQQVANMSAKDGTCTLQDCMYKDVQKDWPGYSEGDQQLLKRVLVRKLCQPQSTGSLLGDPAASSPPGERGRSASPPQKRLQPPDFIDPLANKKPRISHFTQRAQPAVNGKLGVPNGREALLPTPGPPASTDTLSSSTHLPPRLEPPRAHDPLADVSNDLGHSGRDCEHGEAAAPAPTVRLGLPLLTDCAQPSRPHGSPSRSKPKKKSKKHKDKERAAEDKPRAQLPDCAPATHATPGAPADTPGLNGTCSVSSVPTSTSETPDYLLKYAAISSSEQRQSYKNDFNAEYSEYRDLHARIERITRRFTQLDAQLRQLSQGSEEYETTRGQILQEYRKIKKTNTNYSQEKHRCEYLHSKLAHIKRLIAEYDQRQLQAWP
# Columns and labels:
# EAF1 = EAF1 (UniProt Q96JC9); assay: IP of tagged ELL, EAF1 blot; settings: reference: wild type ELL; sites T551,S561,S589
# [1] = target: the molecule itself; assay: co-sedimentation; glycerol gradient of purified recombinant His-GFP-ELL
# GST-ELL = target: T1, GST-ELL; assay: pull-down; GST or GST-ELL bound to glutathione beads incubated with purified prey in 20 mM Tris-Cl pH 8, 20% glycerol, 2 mM EDTA, 150 mM KCl, BSA 20 ng/μl, 0.1% NP-40, 10–12 h, 4°C; immunoblot; some panels with purified EAF1 added; settings: both partners purified
Molecule,binding against the reference (EAF1),binding result [1],binding result (GST-ELL)
"ELL (aka ELL1) (from UniProt P55199) ELL TM (T551A, S561A, S589A)",weaker,–,–
"His-GFP-ELL (natural protein, human, UniProt P55199 1-621, looked up, ELL (aka ELL1), human; Cloned in pET-11d; also called GFP-ELL (in vitro); purified recombinant ELL protein; source: E. coli BL21(DE3), purified (Ni-NTA)) MAALKEDRSYGLSCGRVSDGSKVSVFHVKLTDSALRAFESYRARQDSVSLRPSIRFQGSQGHISIPQPDCPAEARTFSFYLSNIGRDNPQGSFDCIQQYVSSHGEVHLDCLGSIQDKITVCATDDSYQKARQSMAQAEEETRSRSAIVIKAGGRYLGKKVQFRKPAPGATDAVPSRKRATPINLASAIRKSGASAVSGGSGVSQRPFRDRVLHLLALRPYRKAELLLRLQKDGLTQADKDALDGLLQQVANMSAKDGTCTLQDCMYKDVQKDWPGYSEGDQQLLKRVLVRKLCQPQSTGSLLGDPAASSPPGERGRSASPPQKRLQPPDFIDPLANKKPRISHFTQRAQPAVNGKLGVPNGREALLPTPGPPASTDTLSSSTHLPPRLEPPRAHDPLADVSNDLGHSGRDCEHGEAAAPAPTVRLGLPLLTDCAQPSRPHGSPSRSKPKKKSKKHKDKERAAEDKPRAQLPDCAPATHATPGAPADTPGLNGTCSVSSVPTSTSETPDYLLKYAAISSSEQRQSYKNDFNAEYSEYRDLHARIERITRRFTQLDAQLRQLSQGSEEYETTRGQILQEYRKIKKTNTNYSQEKHRCEYLHSKLAHIKRLIAEYDQRQLQAWP",–,binds,binds
